# Positions of bridges follow the written chain, without caps; N, C: chain ends. No end group written: not given here. *: point of attachment. 125I = [125I]*
# How the values were obtained:
# rat CCKB receptor (rat) = rat CCKB receptor (rat) (UniProt P30553); assay: cell-based or functional assay
# [1] = target: human GRF receptor (human) (UniProt Q02643); assay: cell-based or functional assay
# [2] = target: yeast Gβγ (Saccharomyces cerevisiae) (UniProt P18851); assay: cell-based or functional assay
# [3] = target: T1, rat SSTR2 somatostatin receptor subtype (rat, UniProt P30680 1-369); assay: radioligand saturation binding, yeast membranes coexpressing Scg1/Gαi2
# T1 construct: whole, on cells; Tested in yeast cells or crude yeast membranes; also called somatostatin receptor subtype 2
# T1 sequence (P30680 whole entry): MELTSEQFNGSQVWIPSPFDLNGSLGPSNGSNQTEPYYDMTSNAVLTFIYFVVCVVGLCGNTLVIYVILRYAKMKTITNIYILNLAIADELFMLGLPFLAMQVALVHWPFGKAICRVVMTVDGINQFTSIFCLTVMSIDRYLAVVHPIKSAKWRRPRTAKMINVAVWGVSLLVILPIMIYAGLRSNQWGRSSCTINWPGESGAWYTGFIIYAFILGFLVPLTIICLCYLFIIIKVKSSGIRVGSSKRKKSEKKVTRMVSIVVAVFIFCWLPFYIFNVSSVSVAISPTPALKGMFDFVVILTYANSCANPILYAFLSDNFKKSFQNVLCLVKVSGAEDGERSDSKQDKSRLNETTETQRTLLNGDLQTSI
# Sequence of human GRF receptor (human) (Q02643 23-423): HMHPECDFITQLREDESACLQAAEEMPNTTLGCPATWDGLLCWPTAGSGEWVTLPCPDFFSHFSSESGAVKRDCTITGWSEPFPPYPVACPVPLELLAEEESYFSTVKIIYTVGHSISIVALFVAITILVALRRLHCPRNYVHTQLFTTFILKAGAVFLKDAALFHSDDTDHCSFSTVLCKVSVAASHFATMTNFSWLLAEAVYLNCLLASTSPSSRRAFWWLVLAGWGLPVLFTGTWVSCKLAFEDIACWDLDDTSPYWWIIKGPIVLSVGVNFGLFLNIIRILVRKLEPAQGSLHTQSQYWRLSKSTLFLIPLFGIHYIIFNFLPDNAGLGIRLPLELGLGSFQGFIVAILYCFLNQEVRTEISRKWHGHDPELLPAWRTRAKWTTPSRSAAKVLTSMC
# Sequence of rat CCKB receptor (rat) (P30553 whole entry): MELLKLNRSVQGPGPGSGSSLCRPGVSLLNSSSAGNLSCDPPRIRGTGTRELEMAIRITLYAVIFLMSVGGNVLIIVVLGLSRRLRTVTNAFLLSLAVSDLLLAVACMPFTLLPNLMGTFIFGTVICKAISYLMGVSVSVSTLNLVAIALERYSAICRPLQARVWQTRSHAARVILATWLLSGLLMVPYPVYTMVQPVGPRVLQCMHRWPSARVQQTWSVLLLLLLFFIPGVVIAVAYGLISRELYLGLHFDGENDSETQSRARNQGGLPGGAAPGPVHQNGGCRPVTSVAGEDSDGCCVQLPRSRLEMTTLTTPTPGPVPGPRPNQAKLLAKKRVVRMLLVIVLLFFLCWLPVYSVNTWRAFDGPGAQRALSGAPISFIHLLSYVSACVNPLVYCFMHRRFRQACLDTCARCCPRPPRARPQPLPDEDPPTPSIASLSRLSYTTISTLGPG
# Sequence of yeast Gβγ (Saccharomyces cerevisiae) (P18851 whole entry, chain 1 of 2): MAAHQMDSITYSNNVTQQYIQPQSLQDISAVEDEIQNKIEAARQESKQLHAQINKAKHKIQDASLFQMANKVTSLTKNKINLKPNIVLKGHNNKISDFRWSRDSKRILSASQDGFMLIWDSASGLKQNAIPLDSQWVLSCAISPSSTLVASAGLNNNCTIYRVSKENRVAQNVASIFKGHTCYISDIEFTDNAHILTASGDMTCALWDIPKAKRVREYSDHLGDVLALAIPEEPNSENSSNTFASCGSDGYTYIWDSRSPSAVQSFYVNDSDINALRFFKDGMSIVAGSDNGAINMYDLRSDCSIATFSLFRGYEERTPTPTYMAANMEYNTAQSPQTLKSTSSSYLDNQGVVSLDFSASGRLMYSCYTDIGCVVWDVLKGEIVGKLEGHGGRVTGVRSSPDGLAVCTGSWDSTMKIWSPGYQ
# Sequence of yeast Gβγ (Saccharomyces cerevisiae) (P18852 1-107, chain 2 of 2, further chain): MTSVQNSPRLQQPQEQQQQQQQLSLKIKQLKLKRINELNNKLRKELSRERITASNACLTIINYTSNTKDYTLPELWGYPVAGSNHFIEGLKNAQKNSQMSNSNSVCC
molecule,measurement,setting,value
CCK-4 (from UniProt P06307 100-103) (peptide),"growth response, agar plate bioassay, strains LY628 and LY631",rat CCKB receptor (rat),10 µg
hGRF (1-29)-NH2 (from UniProt P01286 32-60) (peptide),"growth response, agar plate bioassay, strain CY990",[1],20 nmol
rat Gαi2 (from UniProt P04897 2-355),"reduction of pheromone-induced FUS1-lacZ signaling, CEN plasmid",[2],16%
AGCKNFFWKTY(125I)TSC (disulfide 3-14 (inferred); ends not checked) [[^125I-tyr^11]-somatostatin 14],Kd,[3],0.6 nM

# — patent US7148053 (BASF AKTIENGESELLSCHAFT, dated 2006)
